The record followed here is the nanobody polyreactivity screen of Harvey et al. (2022).

The nature of this data set: yeast display, Sf9 membrane polyspecificity reagent, FACS + sequencing; frameworks hold sequencing errors. In short, it runs like this: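 Galactose induction of a Saccharomyces cerevisiae BJ5465 synthetic nanobody display library ran 36–48 hours. The cells were then stained for 1 hour at 4 °C with 10% biotinylated, detergent-solubilized Sf9 membrane reagent, pulled down on streptavidin microbeads and FACS-sorted into low and high (top ~1%) gates on expression and reagent-binding fluorescence. Labels for polyreactivity follow the gate of origin.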
Regarding “QVKLVESGGGLVQAGGSLRLSCAASGRIFLWYAMGWYRQEPGKERELVAAISSNGGSTRYAHSVKGRFTISRDNAKNTVYLQMNSLKPEDTAVYYCNADVHWNRYPYGGNGYGYWGQGTQVTVSS”, the “polyreactivity (PSR sort gate)” value is recorded as “low polyreactivity”.

For “QVKLVESGGGLVQAGGSLRLSCAASGRIFYGYTMVWYRQAPGKERELVAAISSSGGSTYYADSVKGRFTISRDNAKNTVYLQMISLKPEDTAVYYCAAYVPYSPYHVEFNYWGQGTQVTVSS”, the “polyreactivity (PSR sort gate)” value was “high polyreactivity”.

Consider “QVKLVESGGGLVQAGGSLRLSCAASGRTFGIYAMGWYRQAPGKERELVAAITWSGDSTYYADSVKGRFTISRDNAKNTVYLQINSLKPEDTAVYYCAADYVGVTSVRYDYWGQGTQVTVSS”, for which the “polyreactivity (PSR sort gate)” value was “low polyreactivity”.

On to “QVKLVESGGGLVQAGGSLRLSCAASGSIFLGNAMGWYRQAPGKERELVATISSSDGSTDYADSVKGRFTISRDNAKNTVYLQMNSLKPEDTEVYYCNADYSYGTTLDYWGQGSQVTVSS”, for which the “polyreactivity (PSR sort gate)” value is “low polyreactivity”.

For the sequence “QVKLVESGGGLVQAGGSLRLSCAASGSIFLSYAMGWYRQAPGKDRELVAAISGGGGSTYYADSVKGRFTISRDNAKNTVYLQMNSLKPEDTAVYYCAADYYYGDALSPYYPHWDFYYWGQGTQVTVSS”, the “polyreactivity (PSR sort gate)” value is given as “low polyreactivity”.

With “QVKLVESGGGLVQAGGSLRLSCAASGSIFWGYDMGWYRQAPGKERELVARISYSGGSTSYADSVKGRFTISRDNAKNTVYLQMNSLKPEDTAVFYCAADEGGFWWTYPYDSLGQGTQVTVSS”, the “polyreactivity (PSR sort gate)” value is listed as “low polyreactivity”.

With “QVKLVESGGGLVQAGGSLRLSCAASGSTVVFNTMGWYRQAPGKERELVAAISTGDSTKYADSVKGRFTISRDNAKITVYLQMNSLKPVDTAVDYCAADTQDRTYYGWRQVGGYDYWGQGTQVTVSS”, the “polyreactivity (PSR sort gate)” value is recorded as “low polyreactivity”.

With “QVKLVESGGGLVQAGGSLRLSCADSGSIFWTYAIVWYRHAPGKERELVAAINSSDGTYYADSVKGRFTISRDNAKNTVYLQMNSLKPEDTAVYYCNADRDALFGYDYDYWGQGTQVTVSS”, the “polyreactivity (PSR sort gate)” value was “low polyreactivity”.

Regarding “QVKLVESGGGLVQAGGSLRLSCAESGRIFHHYAMGWYRQAPGKERELVAAITGGGSTYYADSVKVRFTISRYNAKITVYLQMNSLKPEDTAVYYCAAPPFGYYEVGYDSWGQGSQVTVSS”, the “polyreactivity (PSR sort gate)” value is “low polyreactivity”.

For “QVKLVESGGGLVQAGGSLRLSFPASGRTFKYYAMGLYRQEPGKDRELVAAISWSGGSTYYADSVKGRFTISRDNEKNTVYLQMNSLKPEDTAVYYCAAVRHYHGTWYDYWGQGTQVTVSS”, the “polyreactivity (PSR sort gate)” value is reported as “high polyreactivity”.

“QVKLVESGGGLVQAGGSLRLTCDASGRIFSSYAMGWYRQAPGKERELVAAIRSSGDRTYYADSVKGRFTISRDNAKNTVYLQMNSLKPEDTAVYYCAARAVLKSWAYYYWGQGTQVTVSS”: the “polyreactivity (PSR sort gate)” value is listed as “high polyreactivity”.

On to “QVKLVESGGGLVQAGGSLSLSCAASARIFSAYAMGWYRQAPGKEMELVAAISYSGGSTYYADSVKGRFTIARDNAKNTVYLQMNSLKPEDTADYYCAADTVYGYQWGQGTQVTVSS”, for which the “polyreactivity (PSR sort gate)” value was “low polyreactivity”.

On to “QVKLVESGGGLVQAVGSLRLSCAPSGFTLGSYAMGCYRQAPGKESELVAAITYSGSRTYYADSVKGRFTISRDNAKNTVYLQMNSLKPEDTAVYYCAAVTHYGFDYWGQGTQVTVSS”, for which the “polyreactivity (PSR sort gate)” value is listed as “high polyreactivity”.

For “QVKLVETGGGLVQAGGSLRLSCAASGRTFTPYTMGRYRQAPGKEREFVAAITFRGGSTYYADSVKGRFTISRDIAKNTVYLQMNSLKPEDTEVYFCNARGHGGWGTSMYYWGHGTQVTVSS”, the “polyreactivity (PSR sort gate)” value is “high polyreactivity”.

“QVKRVESGGGIVQAGGSLRLSCAASGSTFHKNVMGWYRQEPGKERELVAAISIIGVRTYYADSVKGRFTISRDNAKNTVYLQINSLKQVDTAVYYCNTDTQNRRGSGRGFWGEGTQVTVSS”: the “polyreactivity (PSR sort gate)” value is recorded as “high polyreactivity”.

In the case of “QVKRVESGGGLVQAGGSLRLSCAASGSIVVTNAMGWYRQAPGKERELVAAITSSGSTDYADSVKGRFTISRDNAKNTVSLLMKILKREDTAVYYCNADVATGIFYGYDSWGQGTQVTVSS”, the “polyreactivity (PSR sort gate)” value was “low polyreactivity”.
